Results as given in US20260078171A1.

Tests used:
[1] = target: SARS-CoV-2 Delta spike protein (authentic virus / MLV pseudovirus) (SARS-CoV-2); assay: cell-based or functional assay
[2] = target: SARS-CoV-2 Omicron BA.4.1 spike protein (authentic virus) (SARS-CoV-2); assay: cell-based or functional assay
[3] = target: SARS-CoV-2 Omicron BA.2 spike protein (authentic virus / MLV pseudovirus) (SARS-CoV-2); assay: cell-based or functional assay
[4] = target: SARS-CoV-2 Omicron BA.1 spike protein (authentic virus / MLV pseudovirus) (SARS-CoV-2); assay: cell-based or functional assay
[5] = target: SARS-CoV-2 Beta RBD (SARS-CoV-2); assay: bio-layer interferometry (BLI, Octet), monovalent Fab affinity
[6] = target: SARS-CoV-2 Omicron BA.2.75 spike glycoprotein (lentivirus-based pseudovirus) (SARS-CoV-2); assay: cell-based or functional assay
[7] = target: SARS-CoV-2 Omicron XBB spike protein, Monogram pseudovirus (SARS-CoV-2) (UniProt P0DTC2); assay: cell-based or functional assay
[8] = target: SARS-CoV-2 Omicron BA.2.75 spike protein, Monogram pseudovirus (SARS-CoV-2) (UniProt P0DTC2); assay: cell-based or functional assay
[9] = target: SARS-CoV-2 Omicron XBB.1 spike protein, Monogram pseudovirus (SARS-CoV-2) (UniProt P0DTC2); assay: cell-based or functional assay
[10] = target: SARS-CoV-2 Omicron BN.1 spike protein, Monogram pseudovirus (SARS-CoV-2) (UniProt P0DTC2); assay: cell-based or functional assay
[11] = target: SARS-CoV-2 B.1.617.2 (Delta) spike protein, Monogram pseudovirus (SARS-CoV-2) (UniProt P0DTC2); assay: cell-based or functional assay
[12] = target: SARS-CoV-2 Omicron XBB.1.5 spike protein, Monogram pseudovirus (SARS-CoV-2) (UniProt P0DTC2); assay: cell-based or functional assay
[13] = target: SARS-CoV-2 Omicron BA.5 spike glycoprotein (lentivirus-based pseudovirus) (SARS-CoV-2); assay: cell-based or functional assay
[14] = target: SARS-CoV-2 Beta spike protein (MLV pseudovirus) (SARS-CoV-2); assay: cell-based or functional assay

Chain of ADI-58125 (antibody) (VH): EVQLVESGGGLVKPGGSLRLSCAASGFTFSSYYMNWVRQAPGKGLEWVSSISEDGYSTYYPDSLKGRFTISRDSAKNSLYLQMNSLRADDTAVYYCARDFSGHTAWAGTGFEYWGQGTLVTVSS
Chain of ADI-58125 (antibody) (VL): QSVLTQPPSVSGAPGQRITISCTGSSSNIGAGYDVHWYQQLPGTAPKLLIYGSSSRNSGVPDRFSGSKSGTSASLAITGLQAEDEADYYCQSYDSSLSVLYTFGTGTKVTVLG
Chain of VYD222 (antibody) (VH): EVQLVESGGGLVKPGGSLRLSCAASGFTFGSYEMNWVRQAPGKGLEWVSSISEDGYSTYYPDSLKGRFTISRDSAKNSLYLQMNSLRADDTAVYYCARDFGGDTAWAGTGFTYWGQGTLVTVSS
Chain of VYD222 (antibody) (VL): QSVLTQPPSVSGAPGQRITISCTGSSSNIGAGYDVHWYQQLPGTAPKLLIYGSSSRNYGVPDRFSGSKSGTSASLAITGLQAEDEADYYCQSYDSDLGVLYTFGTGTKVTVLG
Chain of VYD223 (antibody) (VH): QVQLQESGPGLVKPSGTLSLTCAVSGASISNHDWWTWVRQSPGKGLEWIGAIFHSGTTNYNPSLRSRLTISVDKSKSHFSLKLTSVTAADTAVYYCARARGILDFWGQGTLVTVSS
Chain of VYD223 (antibody) (VL): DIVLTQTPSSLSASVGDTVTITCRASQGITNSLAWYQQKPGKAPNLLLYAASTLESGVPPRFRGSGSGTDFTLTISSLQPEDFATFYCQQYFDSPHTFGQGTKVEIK
Chain of VYD224 (antibody) (VH): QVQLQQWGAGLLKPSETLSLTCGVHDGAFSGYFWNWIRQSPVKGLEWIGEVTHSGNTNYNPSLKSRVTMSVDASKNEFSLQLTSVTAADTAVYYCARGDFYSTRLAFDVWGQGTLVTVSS
Chain of VYD224 (antibody) (VL): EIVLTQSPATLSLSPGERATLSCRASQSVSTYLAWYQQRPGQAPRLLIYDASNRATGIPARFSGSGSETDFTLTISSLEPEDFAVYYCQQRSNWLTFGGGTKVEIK

Substance | IC50, authentic virus neutralization [1] [ng/mL] | IC90, authentic virus neutralization [1] [ng/mL] | IC50, authentic virus neutralization [2] [ng/mL] | IC90, authentic virus neutralization [2] [ng/mL] | IC50, authentic virus neutralization [3] [ng/mL] | IC90, authentic virus neutralization [3] [ng/mL] | IC50, authentic virus neutralization [4] [ng/mL] | IC90, authentic virus neutralization [4] [ng/mL] | further results
CoV2-2130 (antibody) | 61 | 136 | 88 | 587 | 11 | 37 | > 5000 | > 5000 | –
ADI-58125 (Fab) | – | – | – | – | – | – | – | – | Kd [5]: 6.4 nM
VYD224 (antibody) | 6 | 14 | 126 | 359 | 16 | 54 | 10 | 23 | IC50, lentivirus-based pseudovirus neutralization [6]: 10 ng/mL; IC50, PhenoSense pseudovirus neutralization [7]: > 5000 ng/mL; IC50, PhenoSense pseudovirus neutralization [8]: 4 ng/mL; IC50, PhenoSense pseudovirus neutralization [9]: > 5000 ng/mL; IC50, PhenoSense pseudovirus neutralization [10]: 1.5 ng/mL; IC50, PhenoSense pseudovirus neutralization [11]: 1 ng/mL; IC50, PhenoSense pseudovirus neutralization [12]: > 5000 ng/mL; IC50, lentivirus-based pseudovirus neutralization [13]: 80 ng/mL
VYD223 (antibody) | 13 | 60 | 63 | 437 | 16 | 84 | 15 | 68 | –
VYD222 (antibody) | 16 | 103 | 41 | 524 | 8 | 231 | 26 | 143 | IC50, lentivirus-based pseudovirus neutralization [6]: 100 ng/mL; IC50, PhenoSense pseudovirus neutralization [7]: 152 ng/mL; IC50, PhenoSense pseudovirus neutralization [8]: 1360 ng/mL; IC50, MLV-based pseudovirus neutralization [1]: < 0.0001 ng/mL; IC50, PhenoSense pseudovirus neutralization [9]: 121 ng/mL; IC50, PhenoSense pseudovirus neutralization [10]: 2110 ng/mL; IC50, MLV-based pseudovirus neutralization [3]: < 0.0001 ng/mL; IC50, MLV-based pseudovirus neutralization [14]: < 0.0001 ng/mL; IC50, MLV-based pseudovirus neutralization [4]: < 0.0001 ng/mL; IC50, PhenoSense pseudovirus neutralization [11]: 4.2 ng/mL; IC50, PhenoSense pseudovirus neutralization [12]: 81 ng/mL; IC50, lentivirus-based pseudovirus neutralization [13]: 30 ng/mL
LY-CoV1404 (antibody) | 27 | 96 | 26 | 100 | 10 | 69 | 4 | 152 | –
ADI-58125 (antibody) | 49 | 156 | > 5000 | > 5000 | > 5000 | > 5000 | > 5000 | > 5000 | –
